Among the data in publication PMC7954794, “Protein context shapes the specificity of SH3 domain-mediated interactions in vivo” (Nature Communications, 2021) are screen value values, retold here.

The chains are these.
B1: S. cerevisiae Abp1 (full length; SH3 domain 535-592 mutated) / Hua2 (parent)
chain 1: MALEPIDYTTHSREIDAEYLKIVRGSDPDTTWLIISPNAKKEYEPESTGSSFHDFLQLFDETKVQYGLARVSPPGSDVEKIIIIGWCPDSAPLKTRASFAANFAAVANNLFKGYHVQVTARDEDDLDENELLMKISNAAGARYSIQTSSKQQGKASTPPVKKSFTPSKSPAPVSKKEPVKTPSPAPAAKISSRVNDNNDDDDWNEPELKERDFDQAPLKPNQSSYKPIGKIDLQKVIAEEKAKEDPRLVQKPTAAGSKIDPSSDIANLKNESKLKRDSEFNSFLGTTKPPSMTESSLKNDDDKVIKGFRNEKSPAQLWAERKAKQNSGNAETKAEAPKPEVPEDEPEGEPDVKDLKSKFEGLAASEKEEEEMENKFAPPPKKSEPTIISPKPFSKPQEPVKAEEAEQPKTDYKKIGNPLPGMHIEADNEEEPEENDDDWDDDEDEAAQPPLPSRNVASGAPVQKEEPEQEEIAPSLPSRNSIPAPKQEEAPEQAPEEEIEEEAEEAAPQLPSRSSAAPPPPPRRATPEKKPKENPWATAEYDYDAAEDNELTFVENDKIINIEFVDDDWWLGELEKDGSKGLFPSNYVSLGN
chain 2: MQQTKFGKMYLDHDSVVEYSEDEIVEADRITLGYKKRLSMIENQMRHLLEDFSLDVQQIEPILADLQKYYDAFLQLLQKRNKSLQCKRSTHQPVPSPMNSQTSTNAKVNLSGKLMKFQLNSVQKFDEENILRILQNKIEFEHYFQIDKGKKQKVLLLAVYQCLNGPTRLHKVLNIEGIIHNNSIRTILGKQVSSSKWTVFLYDVKLVLLAHRQDVPNLETSKMIVRYGDLFPCALYFKDHTAY

The first test covers variants of B1. Put plainly: DHFR protein-fragment complementation in yeast (Abp1-DHFR F[1,2] x partner-DHFR F[3]), deep mutational scanning, second methotrexate selection vs reference. Conditions: with Hua2; S. cerevisiae, DHFR-PCA selection in liquid with methotrexate at 30 C, two 72 h selections (the score uses the second); reference = the pre-selection culture; not an affinity; scale: DMS score: mean over two replicates of log2(f_test/f_ref + 0.5)/ln 2, minus the synonymous-codon median.
Consider chain 1 I562S, for which the screen value was -2.46.

On to chain 1 I562M, for which the screen value is -1.57.

As to chain 1 I562F, the screen value was -2.51.

Turning to chain 1 I562C, the screen value was -2.84.

With chain 1 I562W, the screen value was -2.85.

Turning to chain 1 I562N, the screen value is -1.85.

chain 1 I562T: the screen value was -2.61.

Turning to chain 1 T538G, the screen value was -2.9.

Turning to chain 1 T538D, the screen value is -2.65.

For the variant chain 1 T538W, the screen value was -1.19.

chain 1 T538P: the screen value was -1.88.

In the case of chain 1 W536N, the screen value was -1.23.

chain 1 W536G: the screen value was -2.23.

Turning to chain 1 W536R, the screen value is -1.3.

chain 1 W536I: the screen value was -1.58.

Regarding chain 1 W536P, the screen value was -2.87.

Turning to chain 1 W536K, the screen value is -1.76.

For the variant chain 1 W536A, the screen value is -1.3.

Regarding chain 1 W536D, the screen value was -1.97.

For chain 1 W536L, the screen value was -1.66.

On to chain 1 L551T, for which the screen value is -2.85.

Take chain 1 L551F: the screen value is -2.93.

For chain 1 L551P, the screen value was -1.38.

Consider chain 1 L551E, for which the screen value is -2.9.

In the case of chain 1 L551R, the screen value was -2.52.

Turning to chain 1 L551V, the screen value is -1.51.

For chain 1 L551Q, the screen value was -2.06.

Turning to chain 1 I559S, the screen value was -1.61.

As to chain 1 I559T, the screen value is -2.21.

Regarding chain 1 I559F, the screen value is -1.21.

Consider chain 1 I559N, for which the screen value was -2.48.

Turning to chain 1 I559M, the screen value was -1.42.

With chain 1 L582S, the screen value is -2.57.

With chain 1 L582P, the screen value is -2.04.

For the variant chain 1 L582Q, the screen value is -2.88.

With chain 1 L582C, the screen value was -2.82.

For chain 1 L582H, the screen value is -1.2.

Consider chain 1 L582N, for which the screen value is -2.32.

On to chain 1 L582V, for which the screen value was -2.

Turning to chain 1 Y541T, the screen value is -2.3.

chain 1 Y541G: the screen value was -1.86.

In the case of chain 1 Y541I, the screen value is -2.42.

Turning to chain 1 D542V, the screen value is -1.37.

For chain 1 D542L, the screen value was -1.84.

For the variant chain 1 D542I, the screen value is -2.41.

Consider chain 1 D542Y, for which the screen value is -1.41.

In the case of chain 1 D542W, the screen value is -1.61.

On to chain 1 F564V, for which the screen value was -2.3.

For chain 1 F564G, the screen value was -2.97.

For chain 1 F564C, the screen value is -1.62.

chain 1 F564I: the screen value was -1.74.

In the case of chain 1 F564S, the screen value is -2.74.

Regarding chain 1 F564A, the screen value is -2.55.

Regarding chain 1 F564T, the screen value is -2.07.

With chain 1 F564L, the screen value is -1.7.

As to chain 1 F564D, the screen value is -2.53.

With chain 1 F564N, the screen value is -2.93.

In the case of chain 1 F564W, the screen value was -2.35.

For the variant chain 1 Y543C, the screen value is -2.15.

For the variant chain 1 Y543S, the screen value is -2.67.

Consider chain 1 Y543Q, for which the screen value is -2.77.

chain 1 Y543D: the screen value is -2.57.

For chain 1 Y543K, the screen value is -2.96.

As for chain 1 Y543N, the screen value was -1.79.

For the variant chain 1 K558G, the screen value is -2.62.

On to chain 1 K558D, for which the screen value was -2.59.

On to chain 1 K558N, for which the screen value was -1.29.

With chain 1 K558W, the screen value was -2.78.

Take chain 1 N586W: the screen value was -2.53.

In the case of chain 1 N586Y, the screen value is -2.41.

As for chain 1 N586F, the screen value is -2.5.

On to chain 1 A546P, for which the screen value was -2.02.

In the case of chain 1 D557S, the screen value is -2.41.

With chain 1 D557Y, the screen value was -2.77.

For the variant chain 1 D557M, the screen value is -2.77.

Regarding chain 1 D557K, the screen value is -2.91.

Consider chain 1 D557C, for which the screen value was -2.97.

On to chain 1 D557V, for which the screen value was -2.87.

On to chain 1 D557N, for which the screen value is -1.63.

In the case of chain 1 D557G, the screen value was -2.9.

Take chain 1 D557A: the screen value is -2.31.

With chain 1 D567Y, the screen value was -1.92.

As for chain 1 V565E, the screen value was -2.08.

As to chain 1 V565I, the screen value was -1.06.

In the case of chain 1 V565G, the screen value was -1.37.

Regarding chain 1 V565F, the screen value is -1.5.

With chain 1 P584A, the screen value was -2.85.

With chain 1 P584S, the screen value is -2.56.

Consider chain 1 P584L, for which the screen value is -2.52.

On to chain 1 P584R, for which the screen value is -2.94.

Turning to chain 1 P584T, the screen value is -2.19.

For chain 1 P584H, the screen value is -2.12.

Take chain 1 A545Y: the screen value is -2.53.

Take chain 1 A545F: the screen value was -2.84.

Regarding chain 1 A545H, the screen value is -1.96.

For the variant chain 1 A545P, the screen value was -1.42.

As for chain 1 A545M, the screen value is -1.83.

Consider chain 1 A545V, for which the screen value is -1.96.

On to chain 1 A545L, for which the screen value was -2.7.

Consider chain 1 A545W, for which the screen value was -2.91.

For chain 1 A545D, the screen value is -1.35.

As to chain 1 A537V, the screen value is -2.01.

On to chain 1 A537S, for which the screen value was -2.6.

In the case of chain 1 A537T, the screen value is -1.87.

For the variant chain 1 A537D, the screen value was -2.14.

Regarding chain 1 A537P, the screen value is -2.58.

As for chain 1 A537F, the screen value was -2.93.

Consider chain 1 L571G, for which the screen value was -1.24.

As to chain 1 L571P, the screen value is -2.25.

For the variant chain 1 F553V, the screen value was -1.32.

On to chain 1 F553S, for which the screen value was -2.83.

Take chain 1 F553Y: the screen value was -2.41.

Consider chain 1 F553C, for which the screen value was -2.38.

For the variant chain 1 Y587N, the screen value was -1.43.

As for chain 1 Y587W, the screen value was -1.66.

For the variant chain 1 Y587Q, the screen value was -2.81.

Turning to chain 1 Y587D, the screen value was -2.16.

chain 1 N556V: the screen value was -2.96.

As for chain 1 N556I, the screen value is -2.52.

chain 1 N556W: the screen value is -1.22.

Consider chain 1 N556P, for which the screen value is -2.97.

For chain 1 D577M, the screen value is -2.7.

On to chain 1 D577N, for which the screen value is -2.24.

Regarding chain 1 D577G, the screen value was -1.18.

Turning to chain 1 D577L, the screen value was -2.96.

As for chain 1 D577V, the screen value was -2.26.

Regarding chain 1 D577K, the screen value was -2.12.

As for chain 1 D577E, the screen value is -1.09.

With chain 1 D577A, the screen value was -1.59.

For the variant chain 1 D577H, the screen value was -2.21.

Turning to chain 1 D577Y, the screen value is -2.59.

For the variant chain 1 D577Q, the screen value is -2.41.

Regarding chain 1 D577W, the screen value was -2.9.

Turning to chain 1 D577R, the screen value is -2.77.

Take chain 1 I560G: the screen value is -2.38.

Turning to chain 1 I560D, the screen value was -2.15.

For the variant chain 1 I560W, the screen value was -2.4.

Regarding chain 1 I560A, the screen value is -1.35.

As for chain 1 G578V, the screen value was -2.83.

Take chain 1 G578E: the screen value was -1.21.

In the case of chain 1 G578C, the screen value is -1.66.

In the case of chain 1 G578F, the screen value is -2.12.

Consider chain 1 G578Y, for which the screen value is -2.41.

Consider chain 1 G578D, for which the screen value was -1.53.

Regarding chain 1 G578T, the screen value is -2.3.

Regarding chain 1 G578L, the screen value is -2.28.

Staying with this test, now noted: with Hua2; S. cerevisiae, DHFR-PCA selection in liquid with methotrexate at 30 C, two 72 h selections (the score uses the second); reference = the pre-selection culture; not an affinity; value at the no-binding floor (a bound); scale: DMS score: mean over two replicates of log2(f_test/f_ref + 0.5)/ln 2, minus the synonymous-codon median.
Turning to chain 1 D557L, the screen value is under -3.06.

As for chain 1 D557F, the screen value is under -3.06.

Regarding chain 1 D557I, the screen value was under -3.06.

For the variant chain 1 D557R, the screen value is under -3.06.

For the variant chain 1 D557W, the screen value is under -3.06.

As to chain 1 D567F, the screen value is -2.99.

As for chain 1 D567W, the screen value was under -3.06.

In the case of chain 1 D567L, the screen value was under -3.06.

For chain 1 A537M, the screen value is under -3.06.

Turning to chain 1 A537E, the screen value was -3.04.

Consider chain 1 A537I, for which the screen value is -3.01.

In the case of chain 1 A537N, the screen value is under -3.06.

With chain 1 A537H, the screen value is under -3.06.

Consider chain 1 A537L, for which the screen value is -3.02.

Consider chain 1 A537R, for which the screen value is -3.04.

As for chain 1 A537Y, the screen value is under -3.06.

Turning to chain 1 A537W, the screen value is under -3.06.

In the case of chain 1 A537Q, the screen value is under -3.06.

As to chain 1 D577P, the screen value is under -3.06.

On to chain 1 D577I, for which the screen value was -2.99.

Take chain 1 D577F: the screen value is -2.98.
